In test [1] the target is T1, STAT1_(136–713) E169V (mouse, UniProt P42225 136-713, E169V).
T1 sequence (looked up): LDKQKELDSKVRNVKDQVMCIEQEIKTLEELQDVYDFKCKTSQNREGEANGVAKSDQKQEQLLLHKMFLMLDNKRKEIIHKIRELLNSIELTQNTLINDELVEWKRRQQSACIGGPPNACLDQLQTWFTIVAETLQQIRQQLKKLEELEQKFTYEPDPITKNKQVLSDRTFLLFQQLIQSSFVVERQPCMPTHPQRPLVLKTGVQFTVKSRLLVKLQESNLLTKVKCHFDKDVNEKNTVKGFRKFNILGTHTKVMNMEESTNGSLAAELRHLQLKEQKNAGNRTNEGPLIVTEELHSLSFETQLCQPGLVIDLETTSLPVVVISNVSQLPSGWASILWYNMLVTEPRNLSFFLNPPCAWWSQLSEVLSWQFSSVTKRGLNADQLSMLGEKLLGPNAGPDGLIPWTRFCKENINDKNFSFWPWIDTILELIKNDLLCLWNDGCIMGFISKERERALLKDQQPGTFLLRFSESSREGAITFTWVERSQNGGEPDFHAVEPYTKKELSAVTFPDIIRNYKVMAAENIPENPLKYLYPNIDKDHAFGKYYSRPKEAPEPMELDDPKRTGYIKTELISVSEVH
The test can be described thus: ITC. Background: ITC needs no label: the signal is the heat of the interaction.

In test [2] the target is T2, STAT1_(136–713) (mouse, UniProt P42225 136-713).
T2 sequence (looked up): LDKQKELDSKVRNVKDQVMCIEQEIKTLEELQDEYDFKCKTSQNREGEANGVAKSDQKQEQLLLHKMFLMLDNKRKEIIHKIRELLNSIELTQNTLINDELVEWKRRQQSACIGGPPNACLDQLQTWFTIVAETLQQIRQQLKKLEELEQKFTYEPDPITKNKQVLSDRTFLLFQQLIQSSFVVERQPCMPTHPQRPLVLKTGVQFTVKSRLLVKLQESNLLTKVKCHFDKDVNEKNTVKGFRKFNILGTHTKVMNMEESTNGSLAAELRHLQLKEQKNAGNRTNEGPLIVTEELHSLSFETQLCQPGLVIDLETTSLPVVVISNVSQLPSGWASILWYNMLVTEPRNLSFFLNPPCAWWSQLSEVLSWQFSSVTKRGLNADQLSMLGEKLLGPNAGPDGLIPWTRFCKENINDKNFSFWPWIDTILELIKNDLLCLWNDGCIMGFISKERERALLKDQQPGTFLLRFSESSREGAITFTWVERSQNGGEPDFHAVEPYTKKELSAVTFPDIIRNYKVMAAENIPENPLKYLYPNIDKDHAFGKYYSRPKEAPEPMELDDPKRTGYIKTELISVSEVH
Put plainly: ITC.

In test [3] the target is T3, STAT2_(133–679) (mouse, UniProt Q9WVL2 133-679).
T3 sequence (looked up): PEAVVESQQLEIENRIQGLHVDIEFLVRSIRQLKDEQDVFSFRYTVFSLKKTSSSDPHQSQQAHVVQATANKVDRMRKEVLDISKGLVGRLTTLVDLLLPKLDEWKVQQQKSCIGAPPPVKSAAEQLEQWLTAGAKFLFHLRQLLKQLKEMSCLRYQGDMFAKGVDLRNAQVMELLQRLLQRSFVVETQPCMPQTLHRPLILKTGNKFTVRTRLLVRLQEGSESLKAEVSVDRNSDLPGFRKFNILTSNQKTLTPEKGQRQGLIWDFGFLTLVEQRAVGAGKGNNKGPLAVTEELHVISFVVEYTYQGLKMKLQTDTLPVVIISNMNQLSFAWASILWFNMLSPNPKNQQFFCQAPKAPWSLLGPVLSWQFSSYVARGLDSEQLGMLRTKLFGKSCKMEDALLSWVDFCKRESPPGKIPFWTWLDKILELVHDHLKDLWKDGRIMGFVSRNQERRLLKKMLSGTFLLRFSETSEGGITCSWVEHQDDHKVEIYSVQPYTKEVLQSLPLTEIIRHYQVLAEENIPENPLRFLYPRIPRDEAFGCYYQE
The test can be described thus: ITC.

Test [4] deals with T4, STAT2_(133–679) V171E (mouse, UniProt Q9WVL2 133-679, V171E).
T4 sequence (looked up): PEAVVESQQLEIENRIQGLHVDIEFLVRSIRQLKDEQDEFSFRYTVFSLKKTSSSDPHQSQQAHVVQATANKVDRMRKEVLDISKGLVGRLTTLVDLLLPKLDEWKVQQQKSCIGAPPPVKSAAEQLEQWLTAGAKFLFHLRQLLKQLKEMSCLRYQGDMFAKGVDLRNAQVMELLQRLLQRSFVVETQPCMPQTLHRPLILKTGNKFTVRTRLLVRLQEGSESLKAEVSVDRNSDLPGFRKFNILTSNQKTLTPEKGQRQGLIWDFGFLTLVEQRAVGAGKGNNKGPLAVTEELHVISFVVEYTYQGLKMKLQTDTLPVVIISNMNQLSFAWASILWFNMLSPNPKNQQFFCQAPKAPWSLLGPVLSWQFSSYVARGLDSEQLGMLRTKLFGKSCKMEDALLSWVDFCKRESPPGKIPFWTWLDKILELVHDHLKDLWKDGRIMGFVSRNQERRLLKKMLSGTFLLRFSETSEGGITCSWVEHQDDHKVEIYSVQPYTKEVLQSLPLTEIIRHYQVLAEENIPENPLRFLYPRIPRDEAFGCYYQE
The test can be described thus: ITC.

The target of test [5] is T5, STAT2_(133–738) (mouse, UniProt Q9WVL2 133-738).
T5 sequence (looked up): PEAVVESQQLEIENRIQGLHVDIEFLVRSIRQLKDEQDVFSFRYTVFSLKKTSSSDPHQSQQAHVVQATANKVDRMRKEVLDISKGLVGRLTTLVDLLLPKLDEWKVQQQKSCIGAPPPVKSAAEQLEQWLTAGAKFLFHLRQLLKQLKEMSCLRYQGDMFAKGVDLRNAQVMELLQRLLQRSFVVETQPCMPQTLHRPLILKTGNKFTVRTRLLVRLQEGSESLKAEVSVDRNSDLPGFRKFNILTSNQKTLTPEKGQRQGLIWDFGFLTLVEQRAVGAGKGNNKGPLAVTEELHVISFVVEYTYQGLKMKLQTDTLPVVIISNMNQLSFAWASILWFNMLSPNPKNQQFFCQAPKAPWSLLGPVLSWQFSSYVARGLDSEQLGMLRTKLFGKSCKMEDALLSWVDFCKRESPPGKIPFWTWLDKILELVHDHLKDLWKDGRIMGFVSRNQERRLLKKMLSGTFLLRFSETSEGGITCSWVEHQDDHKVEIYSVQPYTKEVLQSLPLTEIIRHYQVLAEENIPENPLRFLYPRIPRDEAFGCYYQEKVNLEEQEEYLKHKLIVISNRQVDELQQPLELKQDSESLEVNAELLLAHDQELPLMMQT
Put plainly: SEC. In general terms: SEC sorts molecules by how far they enter the pores of the column.

Test [6] concerns the target T6, IRF9–IAD_(182–385) E347A E348A (crystallised form in the complex) (mouse, UniProt Q61179 182-385, E347A | E348A).
T6 sequence (looked up): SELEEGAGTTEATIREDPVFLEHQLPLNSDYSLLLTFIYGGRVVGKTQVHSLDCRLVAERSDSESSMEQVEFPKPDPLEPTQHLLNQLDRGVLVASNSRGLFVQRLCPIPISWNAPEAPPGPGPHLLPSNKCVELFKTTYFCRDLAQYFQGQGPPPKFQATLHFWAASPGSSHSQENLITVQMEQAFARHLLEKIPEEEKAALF
The test can be described thus: crystal structure.

B1: IRF9–IAD_(182–385) (domain or fragment, mouse, UniProt Q61179 182-385, looked up)
chain: SELEEGAGTTEATIREDPVFLEHQLPLNSDYSLLLTFIYGGRVVGKTQVHSLDCRLVAERSDSESSMEQVEFPKPDPLEPTQHLLNQLDRGVLVASNSRGLFVQRLCPIPISWNAPEAPPGPGPHLLPSNKCVELFKTTYFCRDLAQYFQGQGPPPKFQATLHFWEESPGSSHSQENLITVQMEQAFARHLLEKIPEEEKAALF
Consider B1, for which the Kd (as a rule, a measure of binding affinity in units of concentration) is 116 nM in test [1], 5000 nM in test [2], 10 nM in test [3] and 2500 nM in test [4].

B2: IRF9–IAD IF2 (R324E, D325K, Q331E, Q333E, P335S) (domain or fragment, mouse, UniProt Q61179 182-385, looked up)
chain: SELEEGAGTTEATIREDPVFLEHQLPLNSDYSLLLTFIYGGRVVGKTQVHSLDCRLVAERSDSESSMEQVEFPKPDPLEPTQHLLNQLDRGVLVASNSRGLFVQRLCPIPISWNAPEAPPGPGPHLLPSNKCVELFKTTYFCEKLAQYFEGEGSPPKFQATLHFWEESPGSSHSQENLITVQMEQAFARHLLEKIPEEEKAALF
In test [3], B2 registered a Kd of 11 nM.

B3: IRF9–IAD IF3 (L326A, F330A, I376A) (domain or fragment, mouse, UniProt Q61179 182-385, looked up)
chain: SELEEGAGTTEATIREDPVFLEHQLPLNSDYSLLLTFIYGGRVVGKTQVHSLDCRLVAERSDSESSMEQVEFPKPDPLEPTQHLLNQLDRGVLVASNSRGLFVQRLCPIPISWNAPEAPPGPGPHLLPSNKCVELFKTTYFCRDAAQYAQGQGPPPKFQATLHFWEESPGSSHSQENLITVQMEQAFARHLLEKAPEEEKAALF
For the molecule B3, in test [3], the Kd turned out to be 17 nM.

B4: full-length IRF9 (IRF9FL) (natural protein, mouse, UniProt Q61179 1-399, looked up)
chain: MASGKVRCTRKLRSWIVEQVESGHFPGVCWDDAAKTMFRIPWKHAGKQDFREDQDAAIFKAWALFKEKHKDGDIGHPAVWKTRLRCALNKSSEFEEVPERGRMDVAEPYKVYRILPAGTLPNQPRNQKSPCKRSISCVSPEREENMENGRTNGVVNHSDSGSNIGGGGNGSNRSDSNSNCNSELEEGAGTTEATIREDPVFLEHQLPLNSDYSLLLTFIYGGRVVGKTQVHSLDCRLVAERSDSESSMEQVEFPKPDPLEPTQHLLNQLDRGVLVASNSRGLFVQRLCPIPISWNAPEAPPGPGPHLLPSNKCVELFKTTYFCRDLAQYFQGQGPPPKFQATLHFWEESPGSSHSQENLITVQMEQAFARHLLEKIPEEEKAALFLLQHTEQSPSALGH
Consider B4, for which the binding result in test [5] is “binds”.

B5: STAT2–CCD_(133–315) Q242A K243A (crystallised form) (domain or fragment, mouse, UniProt Q9WVL2 133-315, looked up)
chain: PEAVVESQQLEIENRIQGLHVDIEFLVRSIRQLKDEQDVFSFRYTVFSLKKTSSSDPHQSQQAHVVQATANKVDRMRKEVLDISKGLVGRLTTLVDLLLPKLDEWKVQQAASCIGAPPPVKSAAEQLEQWLTAGAKFLFHLRQLLKQLKEMSCLRYQGDMFAKGVDLRNAQVMELLQRLLQRS
On to B5, for which the binding result in test [6] is reported as “binds”.

Values taken from PMC5789952 (Proceedings of the National Academy of Sciences of the …, 2017).
